Results taken from US10047131B2, “Peptides and combination of peptides for use in immunotherapy against ovarian cancer and other cancers” (immatics biotechnologies GmbH, priority 2015, dated 2018).

Each substance was assayed against HLA-A*02:01 (Homo sapiens, UniProt P04439, D140Y/D185E/D98H/E176V/E277Q/G131W/G231S/I119V/I121R/I166T/I218V/L300P/L318F/N151K/N90K/P208A/P217A/Q86G/Q94H/R138H/R169H/T345S) (assay: MHC binding assay (UV-ligand exchange, ELISA of exchange yield)). Settings: binding to HLA-A*02:01, UV-ligand exchange.
Outline: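 ELISA of β2m retained on streptavidin-captured, 100-fold diluted complexes (HRP anti-β2m, TMB, 450 nm) gives the yield. Complexes come from UV-triggered exchange of a photocleavable placeholder peptide for the candidate, which must bind to stop complex dissociation.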

| Peptide exchange (MHC class I binding score, peptide exchange yield) | Substance |
| --- | --- |
| “+++” (≥50 = +++) | 304 (MTLGQIYYL; listed as Homo sapiens) [compound 304] |
| “++++” (≥75% = ++++) | 305 (SIANFSEFYV; listed as Homo sapiens) [compound 305] |
| “+++” (≥50 = +++) | 306 (ALVNVQIPL; listed as Homo sapiens) [compound 306] |
| “+++” (≥50 = +++) | 307 (ALPVSLPQI; listed as Homo sapiens) [compound 307] |
| “+++” (≥50 = +++) | 308 (SQYSGQLHEV; listed as Homo sapiens) [compound 308] |
| “+++” (≥50 = +++) | 309 (GLFDGVPTTA; listed as Homo sapiens) [compound 309] |
| “++++” (≥75% = ++++) | 310 (FLVDTPLARA; listed as Homo sapiens) [compound 310] |
| “+++” (≥50 = +++) | 311 (RLYTGMHTV; listed as Homo sapiens) [compound 311] |
| “+++” (≥50 = +++) | 312 (IISDLTIAL; listed as Homo sapiens) [compound 312] |
| “+++” (≥50 = +++) | 313 (VLFDDELLMV; listed as Homo sapiens) [compound 313] |
| “+++” (≥50 = +++) | 314 (ALIAEGIALV; listed as Homo sapiens) [compound 314] |
| “+++” (≥50 = +++) | 315 (YLQDVVEQA; listed as Homo sapiens) [compound 315] |
| “+++” (≥50 = +++) | 316 (ILLERLWYV; listed as Homo sapiens) [compound 316] |
| “+++” (≥50 = +++) | 317 (SLAALVVHV; listed as Homo sapiens) [compound 317] |
| “++” (≥20% = ++) | 318 (GLINTGVLSV; listed as Homo sapiens) [compound 318] |
| “++” (≥20% = ++) | 319 (SLEPQIQPV; listed as Homo sapiens) [compound 319] |
| “++++” (≥75% = ++++) | 320 (KMFEFVEPLL; listed as Homo sapiens) [compound 320] |
| “++++” (≥75% = ++++) | 321 (GLFEDVTQPGILL; listed as Homo sapiens) [compound 321] |
| “+++” (≥50 = +++) | 322 (TLMTSLPAL; listed as Homo sapiens) [compound 322] |
| “+++” (≥50 = +++) | 324 (FLYDEIEAEV; listed as Homo sapiens) [compound 324] |
| “+++” (≥50 = +++) | 325 (FIMPATVADATAV; listed as Homo sapiens) [compound 325] |
| “+++” (≥50 = +++) | 326 (FLPEALDFV; listed as Homo sapiens) [compound 326] |

| Peptide exchange (MHC class I binding score, peptide exchange yield) | Substance |
| --- | --- |
| “+++” (≥50 = +++) | 327 (GLAPFTEGISFV; listed as Homo sapiens) [compound 327] |
| “+++” (≥50 = +++) | 328 (ALNDQVFEI; listed as Homo sapiens) [compound 328] |
| “++++” (≥75% = ++++) | 329 (FLVTLNNVEV; listed as Homo sapiens) [compound 329] |
| “+++” (≥50 = +++) | 330 (QLALKVEGV; listed as Homo sapiens) [compound 330] |
| “+++” (≥50 = +++) | 331 (KVDTVWVNV; listed as Homo sapiens) [compound 331] |
| “+++” (≥50 = +++) | 332 (YLISELEAA; listed as Homo sapiens) [compound 332] |
| “++” (≥20% = ++) | 333 (FLPDANSSV; listed as Homo sapiens) [compound 333] |
| “+++” (≥50 = +++) | 334 (TLTKVLVAL; listed as Homo sapiens) [compound 334] |
| “+++” (≥50 = +++) | 335 (YSLSSVVTV; listed as Homo sapiens) [compound 335] |
| “+++” (≥50 = +++) | 336 (ILLTAIVQV; listed as Homo sapiens) [compound 336] |
| “++++” (≥75% = ++++) | 337 (HLLSELEAAPYL; listed as Homo sapiens) [compound 337] |
| “++++” (≥75% = ++++) | 339 (GLWEIENNPTVKA; listed as Homo sapiens) [compound 339] |
| “++++” (≥75% = ++++) | 340 (ALLSMTFPL; listed as Homo sapiens) [compound 340] |
| “+++” (≥50 = +++) | 341 (SQIALNEKLVNL; listed as Homo sapiens) [compound 341] |
| “+++” (≥50 = +++) | 342 (HIYDKVMTV; listed as Homo sapiens) [compound 342] |
| “+++” (≥50 = +++) | 343 (SLLEVNEESTV; listed as Homo sapiens) [compound 343] |
| “+++” (≥50 = +++) | 344 (YLQDQHLLLTV; listed as Homo sapiens) [compound 344] |
| “+++” (≥50 = +++) | 345 (VIWKALIHL; listed as Homo sapiens) [compound 345] |
| “+++” (≥50 = +++) | 346 (LLDSKVPSV; listed as Homo sapiens) [compound 346] |
| “++++” (≥75% = ++++) | 347 (SLFKHDPAAWEA; listed as Homo sapiens) [compound 347] |
| “++++” (≥75% = ++++) | 348 (ILLDVKTRL; listed as Homo sapiens) [compound 348] |
| “++++” (≥75% = ++++) | 349 (SLTEYLQNV; listed as Homo sapiens) [compound 349] |

| Peptide exchange (MHC class I binding score, peptide exchange yield) | Substance |
| --- | --- |
| “+++” (≥50 = +++) | 350 (ALLDVTHSELTV; listed as Homo sapiens) [compound 350] |
| “+++” (≥50 = +++) | 351 (SLIPNLRNV; listed as Homo sapiens) [compound 351] |
| “+++” (≥50 = +++) | 352 (SLLELLHIYV; listed as Homo sapiens) [compound 352] |
| “++” (≥20% = ++) | 353 (YLFEMDSSL; listed as Homo sapiens) [compound 353] |
| “++” (≥20% = ++) | 354 (LILEGVDTV; listed as Homo sapiens) [compound 354] |
| “++” (≥20% = ++) | 355 (SIQQSIERLLV; listed as Homo sapiens) [compound 355] |
| “+++” (≥50 = +++) | 356 (KLLGKLPEL; listed as Homo sapiens) [compound 356] |
| “+++” (≥50 = +++) | 357 (SMHDLVLQV; listed as Homo sapiens) [compound 357] |
| “++++” (≥75% = ++++) | 358 (ALDEYTSEL; listed as Homo sapiens) [compound 358] |
| “+++” (≥50 = +++) | 359 (YLLPESVDL; listed as Homo sapiens) [compound 359] |
| “+++” (≥50 = +++) | 361 (ALYELEGTTV; listed as Homo sapiens) [compound 361] |
| “+++” (≥50 = +++) | 362 (TLYGLSVLL; listed as Homo sapiens) [compound 362] |
| “++” (≥20% = ++) | 363 (KVLDVSDLESV; listed as Homo sapiens) [compound 363] |
| “+++” (≥50 = +++) | 364 (LLQNEQFEL; listed as Homo sapiens) [compound 364] |
| “+++” (≥50 = +++) | 365 (YVIDQGETDVYV; listed as Homo sapiens) [compound 365] |
| “+++” (≥50 = +++) | 366 (RLLDMGETDLML; listed as Homo sapiens) [compound 366] |
| “+++” (≥50 = +++) | 367 (SLQNHNHQL; listed as Homo sapiens) [compound 367] |
| “+++” (≥50 = +++) | 369 (GLFPEHLIDV; listed as Homo sapiens) [compound 369] |
| “+++” (≥50 = +++) | 370 (SLLQDLVSV; listed as Homo sapiens) [compound 370] |
| “++++” (≥75% = ++++) | 371 (FLQAHLHTA; listed as Homo sapiens) [compound 371] |
| “++” (≥20% = ++) | 372 (TMLLNIPLV; listed as Homo sapiens) [compound 372] |
| “++” (≥20% = ++) | 373 (SLLEDKGLAEV; listed as Homo sapiens) [compound 373] |
